According to patent US20250314655A1:

Assays:
[1] = target: TRBC1 peptide (biotinylated) (human); assay: TRF assay, scFv on biotin-peptide/neutravidin plate
[2] = target: TRBC2 peptide (biotinylated) (human); assay: as above

B1: CP_03_E05 (scFv, not shown: small tags and cut ends)
scFv: EVQLVESGGGVVQPGGSLRLSCAASGFTFSSYAMSWVRQAPGKGLEWVSAISGSGGSTYYADSVKGRFSISRDNSKNTLYLQMNSLRAEDTAVYYCARTRSSGAFDIWGQGTLVTVSSGGGGSGGGGSGGGASNFMLTQPHSVSESPGKTVTISCTRSSGSIASKYVQWYQQRPGSSPTTVIYEDNQRPSGVPDRFSGSIDTSSNSASLTISGLRTEDEADYYCHSYDSNNHSVFGGGTKVTVLGQPAA
B1 gave a TRBC1 Binding [1] of 1620 TRF units.

B2: CP_01_D12 (scFv, not shown: small tags and cut ends)
scFv: EVQLLESGGGVVQPGRSLRLSCAASGFTFSSYAMHWVRQAPGKGLEWVAVISYDGSNKYYADSVKGRFTISRDNSKNTLYLQMNSLRAEDTAVYYCAKGGDTYGFLDNWGQGTMVTVSSGGGGSGGGGSGGGASDIQMTQSPSTLSASVGDRVTITCRASQSISSWLAWYQQKPGKAPKLLIYKASSLESGVPSRFSGSGSGTDFTLTISSLQPEDFATYYCQQFNAYPLTFGGGTKVEIKRTAAA
Work on B2 yielded a TRBC2 Binding [2] of 298 TRF units.

B3: CP_01_D10 (scFv, not shown: small tags and cut ends)
scFv: QVQLVESGGGLVQPGRSLRLSCAASGFTFSSYAMHWVRQAPGKGLEWVAVISYDGSSKYYADSVKGRFTISRDNSKNTLYLQMNSLRAEDTAVYYCAKGGGSFGAFDIWGQGTLVTVSSGGGGSGGGGSGGGASDIQMTQSPSSLSASVGDRVTITCRASQSISRYLNWYQQKPGKAPNLLIYAASSLQSGVPSRFSGSGSGTDFTLTISSLQPEDFATYYCQQYNSYPLTFGGGTKLEIKRTAAA
B3 showed a TRBC2 Binding [2] of 306 TRF units.

B4: CP_03_F09 (scFv, not shown: small tags and cut ends)
scFv: QMQLVQSGAEVKKPGASVKVSCKASGYTFASYYMHWVRQAPGQGLEWMGIINPSGGSTSYAQKFQGRVTMTRDTSTSTVYMELSRLRSDDTAVYYCASNRGGSYKSVGMDVWGQGTTVTVSSGGGGSGGGGSGGGASNFMLTQPQSVSESPGKTVTISCTRSSGNFASKYVQWYQQRPGSSPTTVIYENYQRPSGVPDRFSGSIDSSSNSATLTISGLKTEDEADYYCQSYDEVSVVFGGGTQLTVLGQPAA
B4 was tested, and the TRBC1 Binding [1] was 889 TRF units.

B5: CP_03_G09 (scFv, not shown: small tags and cut ends)
scFv: QVQLQQSGPGLVKPSQTLSLTCAISGDSVSSNSAAWNWIRQSPSRGLEWLGRTYYRSKWYNDYAVSVKSRITINPDTSKNQFSLQLNSVTPEDTAVYYCARDQWLANYYYYGMDVWGQGTLVTVSSGGGGSGGGGSGGGASSYELTQPLSVSVALGQTARITCGGNNIGSKNVHWYQQKPGQAPVLVIYRDNNRPSGIPERFSGSNSGNTATLTISKAQAGDEADYYCQVWDSNSWVFGGGTKLTVLGQPAA
For B5, the TRBC1 Binding [1] was 979 TRF units.

B6: CP_03_H06 (scFv, not shown: small tags and cut ends)
scFv: QVQLVESGGGLVKPGGSLRLSCAASGFTFSDYYMSWIRQAPGKGLEWVSYISSSGSTIYYADSVEGRFTISRDNAKNSLYLQMNSLRTEDTAVYYCARARVGGMDVWGQGTMVTVSSGGGGSGGGGSGGGASNFMLTQPHSVSESPGKTVTISCTRSSGSIASNYVQWYQQRPGSSPTTVIYEDNQRPSGVPDRFSGSIDSSSNSASLTISGLKTEDEADYYCQSFDADNLHVVFGGGTKLTVLGQPAA
B6 gave a TRBC1 Binding [1] of 391 TRF units.

B7: CP_03_D09 (scFv, not shown: small tags and cut ends)
scFv: EVQLVQSGAEVKKPGSSVKVSCEASGYTFTSYAISWVRQAPGQGLEWMGWMNPNSGNTGYAQKFQGRVTMTRNTSISTAYMELSSLRSEDTAVYYCARVSSYYGMDVWGQGTLVTVSSGGGGSGGGGSGGGASNFMLTQPLSVSESPGKTVTISCTRSSGSIASNYVQWYQQRPGSAPTTVIYEDNQRPSGVPDRFSGSIDSSSNSASLTISGLKTEDEADYYCQSYNSSNHWVFGGGTKVTVLGQPAA
Work on B7 yielded a TRBC1 Binding [1] of 544 TRF units.

B8: CP_01_C11 (scFv, not shown: small tags and cut ends)
scFv: QVQLVESGAEVKKPGASVKVSCKASGYTFTGYYMHWVRQAPGQGLEWMGRINPNSGGTNYAQKFQGRVTMTRDTSISTAYMELSRLRSDDTAVYYCASGGAGWNWGQGTMVTVSSGGGGSGGGGSGGGASNFMLTQPHSVSESPGKTATISCTRSSGSIASNYVQWYQQRPGSAPTTVIYEDNQRPFGVPDRFSGSIDSSSNSASLTISGLKTEDEADYYCQSHDSSNVVFGGGTQLTVLGQPAA
For B8, the TRBC2 Binding [2] was 622 TRF units.

B9: CP_03_F10 (scFv, not shown: small tags and cut ends)
scFv: EVQLVESGAEVKKPGASVKVSCKASGYTFTGYYMHWVRQAPGQGLEWMGRINPNSGGTNYAQKFQGRVTMTRDTSISTAYMELSSLRSEDTAVYYCARFGERYAFDIWGQGTLVTVSSGGGGSGGGGSGGGASQSELTQPPSASGSPGQSVTISCTGTSTDVGAFHFVSWYQHTPGKAPKLLISEVRKRASGVPDRFSGSRSGNTASLTVSGLQSEDEADYFCSAYTGSNYVFGSGTKLTVLGQPAA
With B9 the TRBC1 Binding [1] was 1680 TRF units.

B10: CP_03_C12 (scFv, not shown: small tags and cut ends)
scFv: EVQLVQSGAEVKKPGASVKVSCKASGYTFTGYYMHWVRQAPGQGLEWMGWINPNSGGTNYAQKFQGRVTMTRDTSISTAYMELSSLRSEDTAVYYCARDTGPIDYWGQGTMVTVSSGGGGSGGGGSGGGASDIVMTQTPLSLSVTPGQPASISCKSSQSLLHSDGKTYLYWYLQKPGQPPQLLVYEVSNRFSGVPDKFSGSGSGTDFTLKISRVEAEDVGVYYCMQGIQLPPTFGGGTKVDIKRTAAA
With B10 the TRBC1 Binding [1] was 789 TRF units.

B11: CP_03_D05 (scFv, not shown: small tags and cut ends)
scFv: QVQLVESGAEVKKPGASVKVSCKASGYTFTGYYMHWVRQAPGQGLEWMGRINPNSGGTNYAQKFQGRVTMTRDTSISTAYMELSRLRSDDTAVYYCASPRGRGSAFDIWGQGTLVTVSSGGGGSGGGGSGGGASSYELTQPPSVSVSPGQTATISCSGDQLGGKYGHWYQKKPGQSPVLVLYQDRKRPAGIPERFSGSSSGNTITLTISGTQAVDEADYYCQAWDTNLGGVFGGGTKVTVLGQPAA
B11 was tested, and the TRBC1 Binding [1] was 762 TRF units.
